Laboratory results reported in patent US20240091260A1 (FRED HUTCHINSON CANCER CENTER, published 2024).

Legend:
[1] = target: T1, PRAME … (ALY) peptide in complex with HLA-A*0201 (HLA-A2) (human); assay: flow cytometry on THP-1 cells, against isotype control
T1 construct: whole, on cells; Naturally processed and presented on PRAME+/HLA-A2+ cells (THP-1, OCI-AML2, RS4;11 HLA-A2+, primary AML blasts, SK-N-SH); no recombinant complex was used; also called PRAME ALY/HLA-A2; PRAME/HLA-A2 complex
Protocol: (§1) Flow cytometry of xenograft cells. PE-conjugated Pr20 antibody was used to confirm PRAME expression on target cell lines and primary patient AML samples. Cell lines and primary samples were washed in 2% FBS in PBS, blocked with 20 ug/mL Fc receptor block (BD Pharmingen, catalog no. 564219) in PBS then stained with PE-conjugated anti-human Pr20 antibody and APC-conjugated HLA-A2 antibody for 20 minutes on ice. Labeled cells were washed with PBS and resuspended in 2% FBS/PBS prior to flow cytometric analysis.

[2] = target: T1, PRAME … (ALY) peptide in complex with …; assay: flow cytometry on OCI-AML2 cells, against isotype control
Protocol: as §1

B1: Pr20 monoclonal antibody (antibody, V domains shown)
VH: QVQLVQSGAEVRKPGASVKVSCKASGGTFSSYAISWVRQAPGQGLEWMGRIIPILGIANYAQKFQGRVTITADKSTSTAYMELSSLRSEDTAVYYCARHYGQWWDYWGQGTLVTVSS
VL: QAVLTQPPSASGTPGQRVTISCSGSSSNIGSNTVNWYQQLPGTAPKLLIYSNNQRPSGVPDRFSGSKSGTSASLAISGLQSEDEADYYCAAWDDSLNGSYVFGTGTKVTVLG
notes: also called Pr20 mAb; Pr20 antibody
MFI (fold change to isotype control) [1]: 2.75 fold
MFI (fold change to isotype control) [2]: 5 fold
